According to article PMC12049944:

Legend:
Experiment in all cases: cross-linking; intermolecular disulfides between Cys residues introduced in helices 4 and 6 of APOA1 in rHDL; SDS-PAGE under reducing and oxidising conditions
[1] = target: APOA1 double Cys mutant K107C/H155C in rHDL (human)
[2] = target: APOA1 double Cys mutant M112C/M148C in rHDL (human)
[3] = target: APOA1 double Cys mutant Y100C/M162C in rHDL (human)
[4] = target: APOA1 double Cys mutant Y115C/E147C in rHDL (human)

“APOA1 double Cys mutant K107C/H155C in rHDL” was tested, and the percent of APOA1 remaining monomeric (oxidising conditions) [1] was 10%.
Substance “APOA1 double Cys mutant M112C/M148C in rHDL” has a percent dimer (oxidising conditions) [2] of 50%.
“APOA1 double Cys mutant Y100C/M162C in rHDL (natural protein)” was tested, and the percent of APOA1 remaining monomeric (oxidising conditions) [3] was 10%.
“APOA1 double Cys mutant Y115C/E147C in rHDL” gave a percent of APOA1 remaining monomeric (oxidising conditions) [4] of 10%.
